99 substances from the supplement of paper PMC12042874 can be followed below.

± gives the uncertainty stated by the source.

A short description of the data set: amyloid nucleation score (Sup35N fusion, yeast selection) (log enrichment); library NNK3; higher = more nucleation; inactive = no reads after selection. The method in brief:
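Peptides of 20 random codons fused to Sup35N were expressed in psi-negative yeast, induced 24 hours with 100 μM copper sulfate, then grown 7 days at 30°C on medium lacking adenine and uracil. Input and output plasmid inserts were Illumina-sequenced. Nucleation score is the DiMSum log enrichment of output over input reads, centred on the mode score of non-aggregating sequences, excluding sequences with under 100 input reads. Random libraries had three technical output replicates.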
Regarding TLIHGGFTYLDQWKDETCPQ, the amyloid nucleation score result was “inactive”. Take TLLLAMNDVTSRLL: the amyloid nucleation score result was “inactive”. The entry for TLNLVSSTICLFR is “inactive”; for TLPLTHYVYVVMLKSSSTGC it is “inactive”. The substance TLPMLDNTNNFTSPL had an amyloid nucleation score of -0.034 ± 0.31.

For the substance TLPMYTRCTTFAHLSSS, the amyloid nucleation score result was “inactive”. The same measure for TLRGMGQHRQR: “inactive”; for TLRMTWALSIRLSPLL: “inactive”; for TLSKILLLSRYLYTRLKVRL: “inactive”. The same measure for TLVSQMPCNM: “inactive”; for TLWCNLSSGMMNFPTASRNL: 1 ± 0.091; for TLYVFWCEQFKRAYWLYVSK: “inactive”. The entry for TMHYFQNTAIDRYEMTAP is “inactive”. In turn, TMSIFDPVE returned an amyloid nucleation score of 1.09 ± 0.11. The same measure for TNEIDLSEFMLQITLMLIRG: “inactive”; for TNINSYGLKIESGGWNQLN: “inactive”. TNLSSSFLTQLRVILMSFLG showed an amyloid nucleation score of 0.798 ± 0.2. With TNTNLMYGSGYLLLNGMQCN, the amyloid nucleation score result was “inactive”. The entry for TNTRASMFIFCVHSMSLLFY is “inactive”; for TNYFESFY it is -0.052 ± 1.2.

In the case of TPCNRREISWFVFSLPA, the amyloid nucleation score entry was “inactive”. As for TPGNNSYAVLMLNELTYKPA, the amyloid nucleation score stood at 0.92 ± 0.13. In turn, TPKLAALFS gave an amyloid nucleation score of -0.497 ± 1.3.

Turning to TPLARFFTCPHIYYLSPGHS, the amyloid nucleation score entry was “inactive”. Take TPLITYHQWFLAICEWLDF: the amyloid nucleation score result is “inactive”. As to TPNRGDFWITCSGGVGVWYG, the amyloid nucleation score result was “inactive”. With TPTWFLRWWFTVSINNMVIW, the amyloid nucleation score result was “inactive”. The same measure for TQGSLTILLGLVTEMLCAYS: “inactive”; for TQNLNRRGKIRVVRDYIDYW: 0.554 ± 0.15; for TQRVGERGIIMYHPWIGYYV: 0.189 ± 0.26. In the case of TQYMWAYPNND, the amyloid nucleation score was 1.18 ± 0.16. The entry for TRAYVVAIDQYFRGRRRNI is “inactive”; for TRCSG it is “inactive”. The entry for TRDFRTCNGLANKVRSKVCS is “inactive”; for TREIIYRDGQALQIAGWVSP it is “inactive”.

Consider TRGRNTKDGVDGDLPADVLV, for which the amyloid nucleation score result is “inactive”. On to TRLLAGFSWYVTFPVNVSGS, for which the amyloid nucleation score result was “inactive”. With TRSFCVSK, the amyloid nucleation score entry is “inactive”.

Take TRSWVYCSKDRSMRGMHHHC: the amyloid nucleation score entry was “inactive”. In the case of TRVDGTYKYRLFDLCDAIKF, the amyloid nucleation score result is “inactive”.

On to TRWGFVCNKTHVLGDMSIGM, for which the amyloid nucleation score result was “inactive”. Turning to TRYLSSFISYGEDSMHVFCG, the amyloid nucleation score result is “inactive”. The same measure for TSCFYFAMVFEQVDWDSVHT: 1.58 ± 0.11; for TSCRLRV: “inactive”. As to TSIIRMAPRPTHSRVIWFKV, the amyloid nucleation score entry is “inactive”. The substance TSLASNFANVTSVTCY returned an amyloid nucleation score of -0.679 ± 1. The figure for TSLLINVVLMVNRPGCP is 1.67 ± 0.061. Regarding TSLVKRSALVFYTGTLIYPF, the amyloid nucleation score entry was “inactive”.

In the case of TSMMSWQSSHCHVYWRTDWV, the amyloid nucleation score worked out at 0.457 ± 0.4.

Regarding TSNFCPFTVQN, the amyloid nucleation score is -0.477 ± 0.8. Turning to TSSAHNTRSCLMM, the amyloid nucleation score result was “inactive”. Turning to TSSHLIGLFYDMLFRDTRSM, the amyloid nucleation score result is “inactive”. The same measure for TSSLWHWMCLEITLPSRSCK: “inactive”; for TSSNRVLVIPVELMIPWRF: -0.299 ± 1.1; for TSTSAYILGPVTQ: “inactive”. With TSWRVFVGYWMG, the amyloid nucleation score result is “inactive”.

Take TSYVLWLSRLYFVANPSDYS: the amyloid nucleation score result was “inactive”. With TSYYIYTVSFDGCCSNLRTV, the amyloid nucleation score is 1.56 ± 0.13. The substance TTCWVYMLVILA displayed an amyloid nucleation score of 1.38 ± 0.077. In the case of TTDLKC, the amyloid nucleation score entry is “inactive”.

In the case of TTEEL, the amyloid nucleation score result was “inactive”. Turning to TTGLFE, the amyloid nucleation score entry was “inactive”. Take TTHVILCLCNL: the amyloid nucleation score is 3.07 ± 0.073.

As for TTLMMGTEPGLDTRLSSLCY, the amyloid nucleation score entry was “inactive”. TTMRCEIKSLYWIISQCWLD: the amyloid nucleation score result is “inactive”. Turning to TTSCEVAWFEICLSSLNFTM, the amyloid nucleation score result is “inactive”.

As to TTSLKTHVLPRNVFRFEPYM, the amyloid nucleation score result was “inactive”. The figure for TTTCHLRIKSNMRLSQEWLG is 1.17 ± 0.12; for TTVDDNFVHRRPM it is “inactive”.

Consider TVACNVFYQLCVE, for which the amyloid nucleation score entry was “inactive”. Consider TVANTNRTALNLMLEMGLGL, for which the amyloid nucleation score result is “inactive”.

On to TVFMYRRVFSIRWG, for which the amyloid nucleation score result is “inactive”. In the case of TVHSHKWCSLVGGPIRISWT, the amyloid nucleation score result is “inactive”.

TVICISHTFSGHCLSSYEVW: the amyloid nucleation score result was “inactive”.

The substance TVIMNLYAPP returned an amyloid nucleation score of 2.51 ± 0.053. Consider TVNLDQMYYMVFCVFRSMHD, for which the amyloid nucleation score stood at 0.498 ± 0.43. Regarding TVNQKPY, the amyloid nucleation score result is “inactive”. The figure for TVNYYRQNSIIMFESYNECC is 0.579 ± 0.17; for TVRASFGYNLRNWCSTVVVE it is “inactive”. TVRYVVSASTWHMSLQSPTL displayed an amyloid nucleation score of 1.33 ± 0.11. The same measure for TVRYVYTCFINFQTLVHRRM: -0.784 ± 0.8; for TVSGQLIT: “inactive”; for TVSIKSAHATRTQVVPNMSF: “inactive”. As to TVTGIMSKYANTSFRN, the amyloid nucleation score result is “inactive”. The entry for TVTVPG is “inactive”; for TVWELM it is -0.068 ± 0.33. For TVYFNYRVWHTMARKQKLSS, the amyloid nucleation score result is “inactive”. TWATVTMVWCLNVNSVDTGL: the amyloid nucleation score is 2.26 ± 0.094.

The substance TWILFFVN came in with an amyloid nucleation score of 1.78 ± 0.062. Take TWKHFFIALLRRSNY: the amyloid nucleation score result was “inactive”. For TWLMFIFNSRYL, the amyloid nucleation score turned out to be 1.51 ± 0.074. With TWLSFIRLNMMPINTSTCYP, the amyloid nucleation score result was “inactive”.

For the substance TWRYRKMYYRSDVNHCLFEV, the amyloid nucleation score result is “inactive”.

For TWTDCERRLDIVKEMLNYIQ, the amyloid nucleation score result was “inactive”. As for TYFYAFALTVPYSWHSEDRM, the amyloid nucleation score came to 2.04 ± 0.054.

For TYGTCVGQK, the amyloid nucleation score entry was “inactive”. The entry for TYHSCY is “inactive”; for TYIVAEANVRSVGDEQSMMN it is “inactive”; for TYKVFL it is “inactive”.
